Assays:
Format in all cases: cell-based, human
SUM159 cells [1] = assay: in vitro matrigel invasion assay; conditions: microRNA induced with Doxycycline vs control; serum as attractant
Description: The invasive capability of pTRIPZ-mir-93-RFP cells or pTRIPZ-mir-100-RFP cells with or without (CONTROL) Doxycycline was assessed by matrigel invasion assay. […] were plated in Matrigel and serum was utilized as the attractant.
(§1) A TET on/off inducible system was established to over-express microRNAs in a lentiviral vector tagged with RFP. Utilizing this system, it was shown that forced over-expression of mir-93 increases the proportion of EpCAM^+CD49f^+ and ALDH^+ cells (FIG. 5). […] Furthermore, forced over-expression of mir-100 increased the proportion of EpCAM^−CD49f^+ cells (FIG. 5).
Assays were done in triplicate in invasion chambers pre-coated with reduced growth factor matrix from BD Biosciences. Cells were added to the upper chamber in […] of serum-free medium. For the invasion assay, 20,000 cancer cells were seeded on the coated chamber, and the lower chamber was filled with […] of medium (Cambrex) with FBS. After 37 hours of incubation, the cells on the underside of the upper chambers were stained with the blue stain in the Cell Invasion Assay Kit (Chemicon; cat. #ECM550) and counted using light microscopy.

SUM159 cells [2] = assay: induction of MET and EMT/MET marker expression in the ALDH-positive CSC population after mir-93 induction; conditions: induction of the microRNA in EMT SUM159 cells
Text: (§2) Furthermore, forced over-expression of mir-100 or mir-221 increased the proportion of EpCAM^−CD49f^+ cells in non-transformed MCF-10A cells as well as primary normal human mammary cells isolated from reduction mammoplasty specimens. […] This was followed by an EMT/MET transition in the Aldefluor-positive CSC population. Since TGFβ is a major regulator of EMT, abrogation of this signaling pathway may facilitate MET.
as §1

TGFβR2 = assay: TGFβ signaling after mir-93 induction; conditions: by targeting TGFβR2; effect seen within twelve hours of induction
Text: as §2

MCF-10A cells = assay: flow cytometry for EpCAM/CD49f, ALDH (Aldefluor) and CD24/CD44 after inducible lentiviral microRNA over-expression; conditions: for ALDH-positive CSC population / CD24−CD44+ population: expression of the microRNA in MCF10A cells and several cancer cell lines
Text: Cells were transduced with pTRIPZ-microRNA-RFP lentiviruses with inducible systems and selected with puromycin, and microRNAs were induced with or without (CONTROL) Doxycycline and analyzed for RFP, EpCAM and CD49f.
as §2
Of interest, it has been recently reported that the mir106b-25 cluster including mir-93 is induced in the early stages of nuclear reprogramming of fibroblasts into IPS cells. This is accompanied by an EMT to MET conversion in these cells which is obligatory for reprogramming to occur.
as §1

[3] = forced over-expression of the microRNA
[4] = forced over-expression of the microRNA, MCF-10A and primary normal human mammary cells

B1: mir-93: microRNA (SEQ ID NO:1) over-expressed from a doxycycline-inducible pTRIPZ lentiviral vector tagged with RFP (nucleic acid, listed as Homo sapiens)
chain: CTGGGGGCTCCAAAGTGCTGTTCGTGCAGGTAGTGTGATTACCCAACCTACTGCTGAGCTAGCACTTCCCGAGCCCCCGG
- cell invasion (SUM159 cells [1]): decreased cell invasion
- MET in the ALDH-positive CSC population (SUM159 cells [2]): induces an MET
- expression of E-Cadherin and Claudin (SUM159 cells [2]; ALDH-positive CSC population): increased expression
- expression of mesenchymal genes (vimentin, N-Cadherin, Twist) (SUM159 cells [2]; ALDH-positive CSC population): down-regulation
- TGFβ signaling (TGFβR2): inhibits TGFβ signaling
- proportion of EpCAM+CD49f+ and ALDH+ cells (MCF-10A cells; forced over-expression of the microRNA (TET inducible lentiviral vector), MCF-10A and primary normal human mammary cells): increases

B2: mir-100: microRNA (SEQ ID NO:2) over-expressed from a doxycycline-inducible pTRIPZ lentiviral vector tagged with RFP (nucleic acid, listed as Homo sapiens)
chain: CCTGTTGCCACAAACCCGTAGATCCGAACTTGTGGTATTAGTCCGCACAAGCTTGTATCTATAGGTATGTGTCTGTTAGG
- cell invasion (SUM159 cells [1]): increased cell invasion
- ALDH-positive CSC population (MCF-10A cells): decrease
- CD24−CD44+ population (MCF-10A cells): increase
- ALDH+ CSC population (MCF-10A cells; [3]): decrease
- proportion of CD24−CD44+ CSC cells (MCF-10A cells; [3]): increase
- proportion of EpCAM−CD49f+ cells (MCF-10A cells; [4]): increased

B3: mir-221: microRNA (SEQ ID NO:3), forced over-expression in mammary cells (nucleic acid, listed as Homo sapiens)
chain: TGAACATCCAGGTCTGGGGCATGAACCTGGCATACAATGTAGATTTCTGTGTTCGTTAGGCAACAGCTACATTGTCTGCTGGGTTTCAGGCTACCTGGAAACATGTTCTC
- ALDH-positive CSC population (MCF-10A cells): decrease
- CD24−CD44+ population (MCF-10A cells): increase
- proportion of EpCAM−CD49f+ cells (MCF-10A cells; [4]): increased
